# Data reported in the supplement of paper PMC12764529.
# ± gives the half width of the 95% confidence interval.
# Tests used:
# [1] = folding stability dG unfold from chymotrypsin proteolysis; higher = more stable
# In short: (§1)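 Only designs with AlphaFold2 dimer inter-PAE above 15 were retained; each was a mini-protein under 80 residues with no cysteine, in a PA-tagged cDNA display construct. After digestion with trypsin and chymotrypsin and sequencing, K50 was inferred by Bayesian fitting of counts, and unfolding free energy was derived per protease or combined against a sequence-predicted unfolded-state K50 and a shared folded-state K50.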
# [2] = folding stability dG unfold from trypsin proteolysis; higher = more stable
# In short: as §1
# [3] = folding stability dG unfold (combined trypsin and chymotrypsin); higher = more stable
# In short: as §1
Sequence,folding stability dG unfold [1] [kcal/mol],folding stability dG unfold [2] [kcal/mol],folding stability dG unfold [3] [kcal/mol]
SAGGPTIRLLVLPNKAEEVAEAIKKEFGAEVKILRVEPYPLPGPDGKVLKPVYLVEIEVKVKDPRLPLSAGG [r13_943_TrMRF],1.3 ± 0.14,1.17 ± 0.051,1.29 ± 0.17
SAGGSAGGSAGMPKRKITKIETEELPPELIRVTITLPDGTPVPVVVSPDDEEVKAIIEKLSAGGSAGGSAGG [r11_122_JUSTAS],0.113 ± 0.13,-0.0513 ± 0.3,0.311 ± 0.24
SAGGSAMFYLLKVELPDGKVLEIRIEATPEEKEEFVEKIKSHPEVKSVELEPISKEEAEELGFEEISAGGSA [r15_39_TrMRF],3.274 ± 0.025,2.62 ± 0.12,3.08 ± 0.12
SAGGGIEREVAPDEVVEIPIVRIEGDVAREETIEIRLPAGARIEPSGDKIRLWFPEEGKVLEIPLTELSAGG [r13_275_TrMRF],-0.079 ± 0.059,-0.0241 ± 0.065,-0.0226 ± 0.096
SFTVERNVYRIENPPKLVVNVIITAEDGTPVPPEVVEEAVRELEKAGFPVKKVSVTPLPDGSVLVTVEVDVS [r1_408_TrMRF],2.13 ± 0.071,2.84 ± 0.1,2.52 ± 0.083
SAKLAEEIAKKILPEVKEVKILKIEVKKDPKSKFKVIKIEMLVKMPKGEKKIKIEIKPGKPKIKIIPLDSAG [r14_397_TrMRF],2.85 ± 0.1,2.16 ± 0.09,2.67 ± 0.22
SAGGSAGGSKGPMITITLFILVRPDDGKYYATVIEMYIYPNGGIDIEMEMIPADDIPPGDIVISAGGSAGGS [r12_38_TrROS],4.74 ± 0.15,2.94 ± 0.17,4.55 ± 0.22
SAGPWMPYYVKVKFPDEEKLEKLVDEIQDESGFNMQVKKNPENGTRTVRVNMPPNIMEALKKHGFEIVSAGG [r19_306_TrROS],-0.208 ± 0.46,0.415 ± 0.11,0.337 ± 0.34
SAGGSAGGSKKVKIIEIDLKDMSPEEILELIKKEKVDAIIIKSDTPEAKRLAEKLKEAGFKVISAGGSAGGS [r12_610_TrROS_Hall],2.36 ± 0.055,1.46 ± 0.043,2.05 ± 0.059
SAGGYKFTIIARFDSVEEAKEWVEEIIRDIFPDNGIEVEVEVETDPENGGVYVKATIEVPPPDPDDFSAGGS [r8_17_TrROS],4.36 ± 0.23,2.98 ± 0.17,4.01 ± 0.3
SAMEYTLEFDNLKGLTADEIEKAFRDEGYPDVKINGIRRNPDDWTITVHYGPGMPPNRVQNAIRKAIQESAG [r14_657_TrROS],1.87 ± 0.091,1.21 ± 0.045,1.62 ± 0.11
SAGGTAEEIVEALKEAGIPVLSIEPNSDGTYTITVGGPDGTPFTIEISSANPADLAALKEAIPEEVSSAGGS [r16_821_TrMRF],4.01 ± 0.072,3.35 ± 0.22,3.86 ± 0.12
SAGMTIVIGAPPELSLEEAVEKAIEAVEALFPDKLKPGSKIKVIVRVYDPETGSVDEVTVEIDVPPGALSAG [r5_916_TrMRF],1.99 ± 0.11,3.35 ± 0.22,2.65 ± 0.1
SAGGMGLEELAKLSPEEIARRLAAEAKAAAAAAGTPDAAVTLEVTLEDKPIVVEVGADGTIRRVELGSAGGS [r16_431_JUSTAS],1.16 ± 0.024,0.442 ± 0.1,0.922 ± 0.063
SAGGSAGGSAGGKIIVYNPETGKPEEVSPEDLEEIIKNTPGPLILKVGEGEIELNAKDISAGGSAGGSAGGS [r10_839_TrMRF],0.862 ± 0.067,0.807 ± 0.051,0.828 ± 0.12
SAGGSAKPKITITVTYDKETNTVTVTITFPDGTTLTITVEAETEEEAKKAAKKLVEELLKKLEELESAGGSA [r15_477_TrROS_Hall],3.4 ± 0.2,3.46 ± 0.27,3.52 ± 0.23

Sequence,folding stability dG unfold [1] [kcal/mol],folding stability dG unfold [2] [kcal/mol],folding stability dG unfold [3] [kcal/mol]
SAGGSAGGSEYRIELELFRTPEGGLVVPVRIYPPDGGRFEGPASLEELVERFGFSFPPLLELLSAGGSAGGS [r20_235_TrMRF],2.54 ± 0.12,1.58 ± 0.035,2.15 ± 0.092
SAGGNKNGKPKPTVPFKIMVMKPKPRRNDNNGQEEPRYDMRPVEIEFPLGEEIDLEEALENPDYIFIMSAGG [r13_753_TrROS],0.276 ± 0.18,-0.0176 ± 0.14,0.199 ± 0.15
SAGGMEEVIKELAKSLGVTKILPESEAKKLSSSVPNALAAVKLPDGSYVLIKRNSDGSVSSIKYKLESAGGS [r16_686_JUSTAS],1.83 ± 0.087,1.14 ± 0.018,1.54 ± 0.1
SVKIKINWQRDPEDGRLYLMIEYRFEDDPQQAIEEIKDILERFGFKVPEIESITVDPGNGEITIPIRIPWSA [r9_876_TrROS],2.62 ± 0.11,2.64 ± 0.097,2.66 ± 0.22
SAGGSMPLDVSSELLEESTDPSDPNRRTTLERRFSPDGTVTLVTRTFDPATGTTEVQETTLPPGLPSAGGSA [r2_73_JUSTAS],1.49 ± 0.14,0.529 ± 0.06,1.14 ± 0.099
SAGGSAGGSAGEPEIEIEVEERDGELVLRARVRDRETGEEYEVVVRVRPDGPIEITEIRPSAGGSAGGSAGG [r17_113_TrROS_Hall],2.55 ± 0.13,3.11 ± 0.13,2.72 ± 0.13
SAGMKPGETIKNAKIRITYPNGEKKELKIDDVVKIVEIDEEKGVITIELKNGEKIEIKLPPGAKIEIEPSAG [r5_762_TrROS_Hall],1.83 ± 0.24,3.42 ± 0.26,3.2 ± 0.58
SAGGSAGGSMEVNLKVTVTYPDGTVVELEIPKVSTEDGKSVEDVAKEIEALPDVKEVEVEIVESAGGSAGGS [r12_199_JUSTAS],2.03 ± 0.1,0.847 ± 0.13,1.55 ± 0.27
SGSMTLVSESTVPEKGTTLLTLKFPNGAPATVTLNPDGSSTTTFPATGLPFTVTVGSGTLTVTTPAALALSA [r9_233_JUSTAS],1.42 ± 0.12,1.01 ± 0.1,1.23 ± 0.18
SAGGSAGGSAGMRYEIEVEEVPPGLVRIRVRVDGKEYTILISEEEAKRLAEELGVEIEPVSAGGSAGGSAGG [r17_109_TrROS_Hall],2.28 ± 0.07,3.24 ± 0.12,2.76 ± 0.19
PDNEPPQWYRVWIPIDPEDGKIEVKPGGSTMTIDLPDGRPIEFYVPQGMSPSDIKNWAKGIAKELAEELKNS [r1_25_TrROS],1.58 ± 0.18,1.54 ± 0.076,1.52 ± 0.2
SAGGMEEILKKLGVKKGDKVKIKIKVEKDGKTETVEIEVPVENLEDILKKLGLSKDQVKITEIKVEKESAGG [r13_681_TrROS_Hall],3.84 ± 0.1,2.17 ± 0.14,3.4 ± 0.073
SAGGSAGGMKATFHPGPGRFPLGDKEYEVDLIYVTVTLPNGVPRVFVLTPDEVEELLPDLELEGSAGGSAGG [r6_561_TrMRF],1.04 ± 0.071,0.338 ± 0.07,0.794 ± 0.098
SAGGSAGGKIRVEVEVEPLPGPEEGGRLLRVRVRVYNENGELLEEIEFPARSPEEAEERLRKAASAGGSAGG [r6_974_TrMRF],3.46 ± 0.082,2.05 ± 0.044,3.15 ± 0.14
SAGGSAGGKEFKIVKVEIEEREDGRLKIHITVEPGATPEEVKKALEELGFEVEEVEVVEVEEEESAGGSAGG [r6_543_TrROS_Hall],2.368 ± 0.023,1.93 ± 0.086,2.24 ± 0.092
